Results reported in the supplement of paper PMC10567573.

B1: FAM46D (parent)
chain: FQEAMTHLQHKLICTRKPEEIRGG

Variants of: B1
Experiment: protein stability index of a GFP-peptide fusion (GPS, HEK-293T) (PSI 1-6); higher = more stable
Details: c terminus: a fixed tail appended
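Note: lentivirally expressed fusions sorted by FACS into six bins by GFP to DsRed ratio, PSI derived from sequencing read proportions per bin multiplied by bin number.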

Row | Variant | protein stability index
1 | FQEAMTHLQHKNICTRKPEEIRGG | 4.18
2 | FQEAMTHLQHKAICTRKPEEIRGG | 3.49
3 | FQEAMTHLQHKKICTRKPEEIRGG | 2.9
4 | FQEAMTHLQHKTICTRKPEEIRGG | 3.99
5 | FQEAMTHLQHKWICTRKPEEIRGG | 1.27
6 | FQEAMTHLQHKDICTRKPEEIRGG | 2.98
7 | FQEAMTHLQHKQICTRKPEEIRGG | 3.87
8 | FQEAMTHLQHKYICTRKPEEIRGG | 2.31
9 | FQEAMTHLQHKMICTRKPEEIRGG | 3.84
10 | FQEAMTHLQHKEICTRKPEEIRGG | 3.27
11 | FQEAMTHLQHKVICTRKPEEIRGG | 3.06
12 | FQERMTHLQHKLICTRKPEEIRGG | 2.75
13 | FQEWMTHLQHKLICTRKPEEIRGG | 1.58
14 | FQENMTHLQHKLICTRKPEEIRGG | 3.36
15 | FQEDMTHLQHKLICTRKPEEIRGG | 2.8
16 | FQEMMTHLQHKLICTRKPEEIRGG | 3.38
17 | FQEQMTHLQHKLICTRKPEEIRGG | 2.98
18 | FQEFMTHLQHKLICTRKPEEIRGG | 1.82
19 | FQEAMTHLQHKLICTRKPEEIRMG | 2.6
20 | FQEAMTHLQHKLICTRKPEEIRNG | 3.01
21 | FQEAMTHLQHKLICTRKPEEIRRG | 2.45
22 | FQEAMTHLQHKLICTRKPEEIRSG | 2.71
23 | FQEAMTHLQHKLICTRKPEEIRPG | 2.87
24 | FQEAMTHLQHKLICTRKPEEIRHG | 2.61

Row | Variant | protein stability index
25 | FQEAMTHLQHKLICTRKPEEIRIG | 2.6
26 | FQEAMTHLQHKLICTRKPEEIRAG | 2.76
27 | FQEAMTHLQHKLICTRKPEEIRLG | 2.66
28 | FQEAMTHLQHKLICTRKPEEIRQG | 2.34
29 | FQEAMTHLQHKLICTRKPEEIRFG | 2.02
30 | FQEAMTHLQHKLICTRKPEEIREG | 2.16
31 | FQEAMTHLQHKLICSRKPEEIRGG | 2.92
32 | FQEAMTHLQHKLICYRKPEEIRGG | 2.17
33 | FQEAMTHLQHKLICHRKPEEIRGG | 2.22
34 | FQEAMTHLQHKLICWRKPEEIRGG | 2.31
35 | FQEAMTHLQHKLICIRKPEEIRGG | 2.21
36 | FQEAMTHLQHKLICKRKPEEIRGG | 3.42
37 | FQEAMTHLQHKLICTRKFEEIRGG | 2.61
38 | FQEAMTHLQHKLICTRKQEEIRGG | 2.19
39 | FQEAMTHLQHKLICTRKAEEIRGG | 2.72
40 | FQEAMTHLQHKLICTRKLEEIRGG | 2.11
41 | FQEAMTHLQHKLICTRKWEEIRGG | 2.35
42 | FQEAMTHLQHKLICTRKEEEIRGG | 3.41
43 | FQEAMTHLQHKLICTRKIEEIRGG | 2
44 | FQEAMTHLQHKLICTRKGEEIRGG | 2.48
45 | FQEAMTHLQHKLICTRKYEEIRGG | 2.14
46 | FQEAATHLQHKLICTRKPEEIRGG | 3.21
47 | FQEATTHLQHKLICTRKPEEIRGG | 3.12
48 | FQEAYTHLQHKLICTRKPEEIRGG | 2.16

Row | Variant | protein stability index
49 | FQEADTHLQHKLICTRKPEEIRGG | 3.44
50 | FQEAHTHLQHKLICTRKPEEIRGG | 3.79
51 | FQEAWTHLQHKLICTRKPEEIRGG | 2.1
52 | FQEAITHLQHKLICTRKPEEIRGG | 2.22
53 | FQEAPTHLQHKLICTRKPEEIRGG | 3.37
54 | FQEAETHLQHKLICTRKPEEIRGG | 4.43
55 | FQEACTHLQHKLICTRKPEEIRGG | 3.35
56 | FQEAVTHLQHKLICTRKPEEIRGG | 2.97
57 | FQEALTHLQHKLICTRKPEEIRGG | 1.64
58 | FQEAMTHLQHILICTRKPEEIRGG | 2.03
59 | FQEAMTHLQHWLICTRKPEEIRGG | 1.58
60 | FQEAMTHLQHRLICTRKPEEIRGG | 2.83
61 | FQEAMTHLQHYLICTRKPEEIRGG | 1.66
62 | FQEAMTHLQHLLICTRKPEEIRGG | 2.79
63 | FQEAMTHLQHCLICTRKPEEIRGG | 2.89
64 | FQEAMTHLQHGLICTRKPEEIRGG | 2.38
65 | FQEAMTHLQHFLICTRKPEEIRGG | 2.16
66 | FQKAMTHLQHKLICTRKPEEIRGG | 2.17
67 | FQSAMTHLQHKLICTRKPEEIRGG | 1.91
68 | FQHAMTHLQHKLICTRKPEEIRGG | 2.21
69 | FQRAMTHLQHKLICTRKPEEIRGG | 1.82
70 | FQPAMTHLQHKLICTRKPEEIRGG | 2.8
71 | FQCAMTHLQHKLICTRKPEEIRGG | 1.64
72 | FQDAMTHLQHKLICTRKPEEIRGG | 2.17

Row | Variant | protein stability index
73 | FQEAMNHLQHKLICTRKPEEIRGG | 2.11
74 | FQEAMQHLQHKLICTRKPEEIRGG | 2.13
75 | FQEAMRHLQHKLICTRKPEEIRGG | 2.69
76 | FQEAMWHLQHKLICTRKPEEIRGG | 1.49
77 | FQEAMKHLQHKLICTRKPEEIRGG | 1.86
78 | FQEAMVHLQHKLICTRKPEEIRGG | 2.86
79 | FQEAMTHLQHKLICTRKPENIRGG | 2.64
80 | FQEAMTHLQHKLICTRKPEFIRGG | 2.38
81 | FQEAMTHLQHKLICTRKPEPIRGG | 2.39
82 | FQEAMTHLQHKLICTRKPERIRGG | 2.19
83 | FQEAMTHLQHKLICTRKPESIRGG | 2.33
84 | FQEAMTHLQHKLICTRKPECIRGG | 2.3
85 | FQEAMTHLQHKLICTRKPEKIRGG | 3.26
86 | FQEAMTHLQHKLICTRKPEVIRGG | 2.38
87 | FQEAMTHLQHKLICTRKPEDIRGG | 2.69
88 | FQEAMTHLQHKLICTRKPEEYRGG | 2.21
89 | FQEAMTHLQHKLICTRKPEENRGG | 3.87
90 | FQEAMTHLQHKLICTRKPEEPRGG | 3.36
91 | FQEAMTHLQHKLICTRKPEEMRGG | 2.9
92 | FQEAMTHLQHKLICTRKPEECRGG | 2.73
93 | FQEAMTHLQHKLICTRKPEEDRGG | 3.26
94 | FQEAMTHLQHKLICTRKPEEQRGG | 3.05
